Here are results for one substance from publication PMC4323857.

In this assay the target is D4 self-association region of P6 (amino acids 414-520), in pEG202 (Cauliflower mosaic virus isolate CM1841). Briefly: two-hybrid.

Take “Full-length P6 with the D3b mutation V324A, in pJG4-5 (natural protein)”: the fold less β-galactosidase activity than the wild type worked out at 9 fold.
